According to patent publication US20220089777A1 (ARONORA, published 2022):

Columns and labels:
[1] = target: T1, human coagulation factor XI (human, UniProt P03951 19-625); assay: cell-based or functional assay
[2] = target: T1, human coagulation factor XI; assay: solid phase binding assay, biotinylated 14E11 on immobilized human FXI
[3] = target: T2, mouse coagulation factor XI (mouse, UniProt Q91Y47 19-624); assay: solid phase binding assay, biotinylated 14E11 on immobilized mouse FXI
T2 construct: also called mouse FXI; mFXI

[4] = target: human activated coagulation factor XI (FXIa) (human) (UniProt P03951); assay: solid phase binding assay, biotinylated 14E11 on immobilized human FXIa
[5] = target: T1, human coagulation factor XI; assay: earlier solid phase binding assay (FIG. 2D), biotinylated 14E11 on immobilized FXI
[6] = target: T2, mouse coagulation factor XI; assay: as above
[7] = target: human activated coagulation factor XI (FXIa) (human) (UniProt P03951); assay: earlier solid phase binding assay (FIG. 2D), biotinylated 14E11 on immobilized FXIa
[8] = target: T1, human coagulation factor XI; assay: solid phase binding assay, biotinylated antibody on immobilized FXI, apparent Kd
[9] = target: T2, mouse coagulation factor XI; assay: as above
[10] = target: T3, human activated coagulation factor XI (FXIa) (human, UniProt P03951 19-625); assay: solid phase binding assay, biotinylated antibody on immobilized FXIa, apparent Kd
T3 construct: also called human FXIa; hFXIa
Experimental: Microtiter plates were coated with FXI or FXIa (2 μg/ml, 100 μL/well) in 50 mmol/L Na₂CO₃ pH 9.6 was incubated overnight at 4° C. in Immulon 2HB microtiter plates (Thermo Scientific). Wells were blocked with 150 μL phosphate buffered saline (PBS) with 2% BSA for 1 hour at room temperature. […] After washing with PBS-0.1% Tween-20 (PBS T), 100 μL streptavidin-horse-radish-peroxidase (ThermoFisher Scientific, 1:8000 dilution in FIBS) was added, and incubated at room temperature for 90 minutes. After washing with PBS-T, 100 μL substrate solution (12 mL 30 mmol/L citric acid; 100 mmol/L Na₂HPO₄, pH 5.0; and 1 o-phenylenediamine dihydrochloride tablet, 12 μL 30% H₂O₂) was added. Reactions were stopped after 10 min with 50 μL 2.5 M H₂SO₄. […] The data was analyzed by non-linear regression analysis and the apparent Kd (equilibrium dissociation constant) was calculated as the concentration of AB023 needed to achieve half-max binding at equilibrium using GraphPad Prism (v. 5.0).

Chain of 14E11, murine monoclonal anti-FXI antibody (VH): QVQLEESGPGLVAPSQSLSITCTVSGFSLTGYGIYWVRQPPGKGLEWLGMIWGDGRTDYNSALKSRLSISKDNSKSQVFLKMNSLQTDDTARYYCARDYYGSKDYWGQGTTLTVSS
Chain of 14E11, murine monoclonal anti-FXI antibody (VL): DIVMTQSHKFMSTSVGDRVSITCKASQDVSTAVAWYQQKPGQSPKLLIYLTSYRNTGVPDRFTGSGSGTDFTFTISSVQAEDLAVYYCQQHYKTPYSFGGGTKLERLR

| Molecule | aPTT of plasma, antibody concentration at maximum inhibition [1] [nM] | EC50 (read off the curve) [2] [pM] | EC50 (read off the curve) [3] [pM] | EC50 (read off the curve) [4] [pM] | Kd [5] [pM] | Kd [6] [pM] | Kd [7] [pM] | Kd [8] [nM] | Kd [9] [nM] | fold prolongation of aPTT of FXI deficient plasma + 10 µg/mL FXI after adding 100 µg/mL AB023 [1] [fold] | Kd [10] [nM] |
| --- | --- | --- | --- | --- | --- | --- | --- | --- | --- | --- | --- |
| 14E11, murine monoclonal anti-FXI antibody | 25 to 50 | 3 | 3 | 3 | 2 to 3 | 2 to 3 | 2 to 3 | 0.39 | 0.07 | – | – |
| AB023, humanized anti-FXI monoclonal antibody (variant VH3/Vκ3, clone 3G3) (antibody, V domains shown, Human IgG4 with S241P (Kabat) hinge modification, kappa light chain; also called A13023; A8023) VH: QVQLQESGPGLVKPSETLSITCTVSGFSLTGYGIYWVRQPPGKGLEWLGMIWGDGRTDYNSALKSRVTISKDNSKSQVSLKLSSVTAADTARYYCARDYYGSKDYWGQGTTVTVSS VL: DIQMTQSPSSLSASVGDRVTITCKASQDVSTAVAWYQQKPGKAPKLLIYLTSYRNTGVPDRFSGSGSGTDFTFTISSLQPEDIAVYYCQQHYKTPYSFGGGTKVEIKR | – | – | – | – | – | – | – | 3.2 | 0.16 | ~2 | 1.3 |
